Series [1] has as its target P. furiosus Rad50 nucleotide binding domain L51C/L828F, LRET-labelled (UniProt P58301). Kind of series: LRET time course. As to conditions: Rad50 NBD in MRNBD complex with Mre11; after addition of saturating ATP; parent: est. 1.0; read off a plot.
In series [2] the target is P. furiosus Rad50 nucleotide binding domain L51C/D829N, LRET-labelled (UniProt P58301). In words: LRET time course. The note with it: Rad50 NBD in MRNBD complex with Mre11; after addition of saturating ATP; parent: est. 1.0; read off a plot.
The target in series [3] is Mre11^HLH-Rad50^NBD, wild type (Pyrococcus furiosus) (UniProt P58301). Kind of series: SEC; Superdex 200 Increase 10/300 GL, 4 °C, with 5 mM ATP; fraction dimer = area of the dimer peak over the areas of monomer and dimer peaks; monomer to dimer. (In gel filtration, larger molecules generally elute earlier.)
The target in series [4] is P. furiosus Rad50 nucleotide binding domain L51C/L828A, LRET-labelled (UniProt P58301). Kind of series: LRET time course. The note with it: Rad50 NBD in MRNBD complex with Mre11; after addition of saturating ATP; parent: est. 1.0; read off a plot.
Series [5] addresses T1, Pf MR^NBD complex (Mre11-Rad50^NBD) (Pyrococcus furiosus, UniProt P58301, DEL196-708).
T1 construct: ~180 kDa complex; with DNA double-strand break repair protein Mre11
In words: Mre11 exonuclease assay, 2-aminopurine fluorescence (Exo2 dsDNA). The series is classed as biochemical. As to conditions: 1 mM AMP-PNP, 1 mM MnCl2, 5 mM MgCl2, 60 C, pH 7.5; binds Rad50 and stabilizes the closed state that occludes the Mre11 active site.

Series [6] deals with the molecule itself. Kind of series: FRET or BRET; as a1 but with 2 mM ATP (ATP-bound); MR^NBD complexes with Mre11; 50 mM Tris, 200 mM NaCl, 5 mM MgCl2, pH 7.5, 50 °C; percent of LRET-visible molecules only.
Series [7] concerns the molecule itself. Kind of series: FRET or BRET; LRET time course: increase of donor-sensitized Bodipy FL emission after addition of 2 mM ATP to MR complexes; kex = k_assoc + k_dissoc of open to closed; 50 mM Tris, 200 mM NaCl, 5 mM MgCl2, pH 7.5, 50 °C. A general note: In BRET a luciferase serves as donor, and the signal depends on an acceptor being close.
Series [8] deals with the molecule itself. In words: FRET or BRET; LRET between Tb3+ chelate (donor) and Bodipy FL (acceptor) on L51C of the two Rad50^NBD in MR^NBD complexes with Mre11; donor-sensitized acceptor lifetimes, three-exponential fit; no ATP (apo); 0.5 uM wild type, L828A, D829A or 2.0 uM L828F, D829N complexes; 50 mM Tris, 200 mM NaCl, 5 mM MgCl2, pH 7.5, 50 °C; percent of LRET-visible molecules only.

Residue numbers refer to the chain shown, from its start. In names and notes the source's numbering stands.

As for “P. furiosus Rad50 nucleotide binding domain L51C, LRET-labelled (from UniProt P58301) L828F”, in series [1], the ratio to parent worked out at 4.2.

For “P. furiosus Rad50 nucleotide binding domain L51C, LRET-labelled (from UniProt P58301) D829N”, in series [2], the ratio to parent was determined as 8.7.

By stoichiometry N is commonly meant a count of units in the complex or per binding partner. On to “Mre11^HLH-Rad50^NBD, wild type (from UniProt P58301 1-195; P58301 709-882) (complex)”, for which, in series [3], the percent converted to a stable dimer upon addition of ATP came out at 30% and the stoichiometry N worked out at 2.

“P. furiosus Rad50 nucleotide binding domain L51C, LRET-labelled (from UniProt P58301) L828A”: the ratio to parent in series [4] was found to be 4.4.

On to `Nc1ncnc2c1ncn2[C@@H]1O[C@H](COP(=O)(O)OP(=O)(O)NP(=O)(O)O)[C@@H](O)[C@H]1O` [AMP-PNP], for which the “Mre11 exonuclease assay, 2-aminopurine fluorescence (Exo2 dsDNA)” value in series [5] is “AMP-PNP, which stabilizes the complex into the closed state and occludes the Mre11 active”.

B1: P. furiosus Rad50 nucleotide binding domain L51C/L828F, LRET-labelled (domain or fragment, Pyrococcus furiosus)
chain: MKLERVTVKNFRSHSDTVVEFKEGINLIIGQNGSGKSSLLDAILVGLYWPCRIKDIKKDEFTKVGARDTYIDLIFEKDGTKYRITRRFLKGYSSGEIHAMKRLVGNEWKHVTEPSSKAISAFMEKLIPYNIFLNAIYIRQGQIDAILESDEAREKVVREVLNLDKFETAYKKLSELKKTINNRIKEYRDILARTEGGAGGAGGRERVKKEIKDLEKAKDFTEELIEKVKKYKALAREAALSKIGELASEIFAEFTEGKYSEVVVRAEENKVRLFVVWEGKERPLTFLSGGERIALGLAFRLAMSLYLAGEISLLILDEPTPYFDEERRRKLITIMERYLKKIPQVILVSHDEELKDAADHVIRISLENGSSKVEVVS
modifications: Tb3+ chelate DTPA-cs124-EMPH (donor) or Bodipy FL maleimide (acceptor) on the cysteine L51C
notes: Rad50, Pyrococcus furiosus, amino acids 1-195; linker that replaces most of the coiled-coil and the Zn-hook; Rad50, Pyrococcus furiosus, amino acids 709-882; Measured within the MR^NBD complex with Mre11; also called L828F MR^NBD (LRET); source: labelled and passed over Superdex 200 Increase
With B1, the “percent of molecules in the closed state” value in series [6] and in series [8] was 30% each time. Besides, the “fold faster approach to equilibrium (kex) than wild type” value (from here on “fold faster approach to equilibrium”) in series [7] was around 4 fold.

B2: P. furiosus Rad50 nucleotide binding domain L51C/D829A, LRET-labelled (domain or fragment, Pyrococcus furiosus)
chain: B1 chain with F323L, D324A
modifications: Tb3+ chelate DTPA-cs124-EMPH (donor) or Bodipy FL maleimide (acceptor) on the cysteine L51C
notes: Rad50, Pyrococcus furiosus, amino acids 1-195; linker that replaces most of the coiled-coil and the Zn-hook; Rad50, Pyrococcus furiosus, amino acids 709-882; Measured within the MR^NBD complex with Mre11; also called D829A MR^NBD (LRET); source: labelled and passed over Superdex 200 Increase
Consider B2, for which the “percent of molecules in the closed state” value was found to be 60% in series [6] and 42% in series [8].

B3: P. furiosus Rad50 nucleotide binding domain L51C/L828A, LRET-labelled (domain or fragment, Pyrococcus furiosus)
chain: B1 chain with F323A
modifications: Tb3+ chelate DTPA-cs124-EMPH (donor) or Bodipy FL maleimide (acceptor) on the cysteine L51C
notes: Rad50, Pyrococcus furiosus, amino acids 1-195; linker that replaces most of the coiled-coil and the Zn-hook; Rad50, Pyrococcus furiosus, amino acids 709-882; Measured within the MR^NBD complex with Mre11; also called L828A MR^NBD (LRET); source: labelled and passed over Superdex 200 Increase
In the case of B3, the “percent of molecules in the closed state” value in series [6] was determined as 54%; in series [8] it was 46%. Also, the “fold faster approach to equilibrium” value in series [7] was around 4 fold.

B4: P. furiosus Rad50 nucleotide binding domain L51C/D829N, LRET-labelled (domain or fragment, Pyrococcus furiosus)
chain: B1 chain with F323L, D324N
modifications: Tb3+ chelate DTPA-cs124-EMPH (donor) or Bodipy FL maleimide (acceptor) on the cysteine L51C
notes: Rad50, Pyrococcus furiosus, amino acids 1-195; linker that replaces most of the coiled-coil and the Zn-hook; Rad50, Pyrococcus furiosus, amino acids 709-882; Measured within the MR^NBD complex with Mre11; also called D829N MR^NBD (LRET); source: labelled and passed over Superdex 200 Increase
B4: the “percent of molecules in the closed state” value in series [6] and in series [8] was 33% in each case. The “fold faster approach to equilibrium” value in series [7] was around 8 fold.
